Source: patent publication US20150307599A1 (GARVAN INSTITUTE OF MEDICAL RESEARCH, published 2015)
Where no end group is shown, it is not given here.

Assays:
NPY (mouse NPY, Phoenix) [1] = biological target: T1, NPY (mouse NPY, Phoenix) (mouse, C-terminal amide (-NH2)); assay: BLI (Octet RED96), biotinylated MAb on SA sensors, peptide in solution
T1 construct: 36-residue whole peptide bought from Phoenix Peptides; also called mNPY; neuropeptide Y
Protocol: (§1) Affinity of MAb to peptides NPY, mPYY, hPYY, mPP and hPP were measured using an OCTET RED96 system with Octet SA sensors (ForteBio). Briefly, black 96-well plates were prepared with columns containing 200 μL/well of all reagents required for determination of affinity. In general, Octet SA sensors were first placed in wells containing Octet running buffer for 60 seconds to establish a baseline. Sensors were then transferred to wells containing 50 μg/mL biotinylated 5E12-B7 for 480 seconds to load the SA coated tips. Sensors were then regenerated by 3×5 second incubations in Regeneration Buffer (10 mM Glycine, pH 2) followed each time by a 5 second incubation in Octet running buffer. Sensors were then placed in fresh running buffer for 60 seconds to establish a baseline. Association was then measured by incubation the sensors for 10 min in 8 wells containing a serial dilution of peptide (0, 0.33 to 243 nM for NPY and PYY peptides, 0, 9 to 6560 nM for PP peptides). The sensors were then transferred to wells containing Octet running buffer for 15 min to measure dissociation of the peptides. The regeneration step was repeated before measurement of association/dissociation with a different peptide. All peptide measurements were performed in duplicate. The kd, kₐ and KD were determined for each peptide using the accompanying Octet software (Bioforte).
(§2) Affinity parameters of MAb 5E12-B7 were measured against peptides NPY, mPYY, hPYY, mPP and hPP using an Octet Red system (ForteBio). Streptavadin sensors were loaded with biotinylated MAb 5E12-B7. Association and dissociation rates were measured by incubation of the sensors in wells containing serial dilutions of the peptides, followed by incubation in assay buffer.

human PYY (Phoenix) [2] = biological target: T2, human PYY (Phoenix) (human, C-terminal amide (-NH2)); assay: as above
T2 construct: 36-residue whole peptide; also called hPYY
T2 sequence (peptide, as listed by the source): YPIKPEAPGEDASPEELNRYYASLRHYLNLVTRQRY
Protocol: as §1, §2

[3] = biological target: T3, Peptide 3p18 (NPY C terminus with similar a.a. substitutions); assay: SPR (Biacore), FIGS. 11A and 11B
T3 construct: Poly-alanine 17-mer ending QRF-amide
T3 peptide: AAAAAAAAAAAAAAQRF-NH2
Protocol: (§3) Epitope mapping and determination of the affinity of MAb 5E12-B7 was also performed using a Biacore 2000 unit (GE Healthcare). Briefly, purified MAb 5E12-B7 was biotinylated as described above, except that the biotinylation reaction was performed at a 20:1 molar ratio of biotin:Ig. An SA-Chip (GE Healthcare) was docked into the Biacore 2000 unit and HBS-EP buffer (GE) was allowed to run over all 4 flow channels at 40 μL/min until signal had stabilized. The flow path was then switched to channel 4 only and HBS-EP containing 60 μg/mL biotinylated antibody was injected at 40 μL/min for 5 min to couple MAb 5E12-B7 to the chip via biotin-streptavidin binding. HBS-EP buffer was then run over channel 4 at 40 μL/min for over 30 min to remove all uncoupled Ig from the Biacore system then the flow path was changed to pass through all 4 flow channels. Association and dissociation of the peptides in Table 3 was measured using the Biacore Application Wizard. In each case, a baseline was established by passing HBS-EP over all 4 channels at 40 μL/min for 1 min before association was measure by injection of peptide (diluted to 1, 10, 100 or 1000 nM in HBS-EP) at 40 μL/min for 5 min. Dissociation was measured by allowing HBS-EP to pass over all 4 channels at 40 μL/min for 30 min. The kd, kₐ and KD were determined for each peptide by curve fitting using the BIAevalutation software.

[4] = biological target: T4, Peptide 3p19 (NPY C terminus with similar a.a. substitutions); assay: SPR (Biacore), FIGS. 11A and 11B
T4 construct: Poly-alanine 17-mer ending QRW-amide
T4 peptide: AAAAAAAAAAAAAAQRW-NH2
Protocol: as §3

[5] = biological target: T5, Peptide 3p17 (NPY C terminus with similar a.a. substitutions); assay: SPR (Biacore), FIGS. 11A and 11B
T5 construct: Poly-alanine 17-mer ending QRH-amide
T5 peptide: AAAAAAAAAAAAAAQRH-NH2
Protocol: as §3

[6] = biological target: T6, Peptide 3p7 (Brain Neuropeptide I); assay: SPR (Biacore), FIG. 12
T6 peptide: AGEGLSSPFWSLAAPQRF-NH2
Protocol: as §3

Peptide 3p6 (ala-NPFF) = biological target: T7, Peptide 3p6 (ala-NPFF); assay: SPR (Biacore), FIG. 12
T7 construct: Last 8 residues of NPFF on a poly-alanine helix
T7 peptide: AAAAAAAAAFLFQPQRF-NH2
Protocol: as §3

[7] = biological target: T8, Peptide 3p8 (Poly alanine with last 4 residues NPFF); assay: SPR (Biacore), FIG. 12
T8 peptide: AAAAAAAAAAAAAPQRF-NH2
Protocol: as §3

NPY (mouse NPY, Phoenix) [8] = biological target: T1, NPY (mouse NPY, Phoenix); assay: SPR (Biacore 2000), biotinylated MAb on SA chip, peptide in solution
Protocol: as §3
(§4) The affinity of MAb 5E12-B7 to NPY, PYY and PP peptides was measured using a Biacore-2000 (GE-healthcare). Biotinylated MAb was loaded onto a single channel of a streptavidin chip, and dilute samples (1 nM-1 μM) of NPY, mPYY, hPYY, mPP and hPP were then run over all four channels of the chip to obtain blank-subtracted readings for peptide on and off-rates. Using this method, significant and/or detectable binding of MAb 5E12-B7 to NPY, mPYY and hPYY was detected. In contrast, no significant and/or detectable binding to mPP and hPP could be detected.

human PYY (Phoenix) [9] = biological target: T2, human PYY (Phoenix); assay: as above
Protocol: as §3, §4

- Kd (NPY (mouse NPY, Phoenix) [1]): 4.7 nM
- koff (NPY (mouse NPY, Phoenix) [1]): 0.000429 s⁻¹
- kon (NPY (mouse NPY, Phoenix) [1]): 92600 M⁻¹ s⁻¹
- Kd (human PYY (Phoenix) [2]): 2.17 nM
- koff (human PYY (Phoenix) [2]): 0.000385 s⁻¹
- kon (human PYY (Phoenix) [2]): 179000 M⁻¹ s⁻¹
- binding result [3]: no binding
- binding result [4]: no binding
- binding result [5]: no binding
- binding result [6]: no binding
- binding result (Peptide 3p6 (ala-NPFF)): no binding
- binding result [7]: no binding
- Kd (NPY (mouse NPY, Phoenix) [8]): 9.79 nM
- koff (NPY (mouse NPY, Phoenix) [8]): 0.00142 s⁻¹
- kon (NPY (mouse NPY, Phoenix) [8]): 149000 M⁻¹ s⁻¹
- Kd (human PYY (Phoenix) [9]): 5.97 nM
- koff (human PYY (Phoenix) [9]): 0.00138 s⁻¹
- kon (human PYY (Phoenix) [9]): 251000 M⁻¹ s⁻¹
B1: MAb 5E12-B7 (antibody, V domains shown)
VH: QVQLQHPGTEVVKPGASVKLSCKASGYTFTNYWMHWVKQRPGQGLEWIGNIDPSNGGTNYNEKFKSKATLTVDKSSSTAYMQLSSLTSEDSAVYYCASFAYWGQGTLVTVSA
VL: DIQMTQSPASLSASVGETVTITCRASGNIHNYLAWYQQKQGKSPQLLVYNAKTLADGVPSRFSGSGSGTQYSLKISSLRPEDFGSYYCQHFWSPPFTFGSGTKLEIK
notes: Biotinylated for the Biacore and Octet assays; also called PYY/NPY antibody (5E12); anti-NPY/PYY antibody 5E12
